# Measurements from patent US20200325187A1 (Genentech, published 2020).
# Positions count from the first letter of the chain named. Where two headings read alike, the source gives them in different places.
# T1: PIGF-2 (human, UniProt P49763-3 19-170)
# T1 construct: also called P1Gf-2; P1GF
# T1 sequence (looked up): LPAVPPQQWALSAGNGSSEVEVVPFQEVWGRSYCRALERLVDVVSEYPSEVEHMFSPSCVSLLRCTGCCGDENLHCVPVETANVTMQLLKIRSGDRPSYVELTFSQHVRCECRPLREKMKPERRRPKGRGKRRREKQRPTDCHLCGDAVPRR
# T2: hVEGF-A F17A/M81A (human, UniProt P15692-4 34-135, F17A; M81A)
# T2 construct: positions probably counted on the mature protein
# T2 sequence (looked up): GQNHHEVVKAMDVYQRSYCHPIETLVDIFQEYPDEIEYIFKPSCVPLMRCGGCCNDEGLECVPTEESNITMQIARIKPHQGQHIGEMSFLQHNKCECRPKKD
# T3: hVEGF-A (8-109) (human, UniProt P15692 214-315)
# T3 sequence (looked up): T2 sequence (looked up) with A10F, A74M
# T4: VEGF-D (human, UniProt O43915 93-201, limits assumed)
# T4 sequence (looked up): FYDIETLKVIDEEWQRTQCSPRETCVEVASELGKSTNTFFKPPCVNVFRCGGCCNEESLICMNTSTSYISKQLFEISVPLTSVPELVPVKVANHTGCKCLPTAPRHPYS
# T5: VEGF-C (human, UniProt P49767 103-227, limits assumed)
# T5 sequence (looked up): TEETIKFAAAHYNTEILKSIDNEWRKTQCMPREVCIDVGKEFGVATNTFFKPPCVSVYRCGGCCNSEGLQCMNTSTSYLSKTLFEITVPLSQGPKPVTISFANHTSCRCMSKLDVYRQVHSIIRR
# B1: VEGF_CKP9.54.90 (designed binder)
# chain: GCNIMLPFWGCGRDFECLAGCVCQYYQSCG
# Experiments:
# PIGF-2 = biological target: T1, PIGF-2; assay: competition ELISA: PIGF-2 coated, constant Flt-1 receptor, peptide titrated
# PDGF-ββ = PDGF-ββ (human, UniProt P01127 82-190); assay: competition ELISA: PDGF coated, constant PDGFR receptor, peptide titrated
# PDGF-ββ, sequence (P01127 82-190): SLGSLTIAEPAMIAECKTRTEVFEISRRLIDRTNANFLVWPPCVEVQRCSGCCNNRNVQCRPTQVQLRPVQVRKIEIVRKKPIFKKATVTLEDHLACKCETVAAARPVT
# hVEGF-A F17A/M81A = biological target: T2, hVEGF-A F17A/M81A; assay: site-directed mutants, SPR; no numbers printed for this mutant
# human VEGF-A 165 [1] = biological target: T6, human VEGF-A 165 (human, UniProt P15692-4 27-191); assay: competition ELISA: VEGF-A 165 coated, constant KDR receptor, peptide titrated; blocked ligand: KDR
# Method: (§1) Binding specificity of each peptide was established by competition ELISA. […] After blocking with block buffer (PBS with 0.5% BSA and 0.05% TWEEN®20) for 2 hours at room temperature, the receptor-Fc fusions or biotinylated receptors were serially diluted using assay buffer (PBS with 0.5% BSA and 0.05% TWEEN®20) and incubated for 1 hour at room temperature. […] Competition ELISA was conducted in an identical fashion as described above except after blocking, a mixture of serially diluted peptide containing a constant concentration of receptor-Fc fusion or biotinylated receptor (concentration of receptor was set to EC₆₀) was added and incubated for 1 hour. All recombinant human proteins and antibodies were purchased from R &D Systems (Minneapolis, Minn.).
# Target sequence in this assay (P15692 other isoform, or with tags, fused parts or gaps limits assumed): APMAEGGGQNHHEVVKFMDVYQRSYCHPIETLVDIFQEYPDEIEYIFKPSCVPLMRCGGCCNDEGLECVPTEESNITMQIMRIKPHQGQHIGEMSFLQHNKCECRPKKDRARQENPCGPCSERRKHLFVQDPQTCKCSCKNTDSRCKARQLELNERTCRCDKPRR
# hVEGF-A [2] = biological target: T7, hVEGF-A (human, UniProt P15692-4 27-191, limits assumed); assay: cell-based or functional assay
# hVEGF-A (8-109) [3] = biological target: T3, hVEGF-A (8-109); assay: competition ELISA: VEGF-A (8-109) coated, constant Flt-1 receptor, peptide titrated; blocked ligand: Flt-1
# Method: as §1
# hVEGF-A (8-109) [4] = biological target: T3, hVEGF-A (8-109); assay: competition ELISA: VEGF-A (8-109) coated, constant KDR receptor, peptide titrated; blocked ligand: KDR
# Method: as §1
# hVEGF-A (8-109) [5] = biological target: T3, hVEGF-A (8-109); assay: spot phage ELISA
# Outline: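 Phage clones from four selection rounds were grown overnight at 37 °C with M13-KO7 helper phage. Bound phage was detected with anti-M13-HRP and TMB, with binding to BSA alone run in parallel as background.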
# hVEGF-A [6] = biological target: T7, hVEGF-A; assay: KDR-VEGF competition ELISA
# hVEGF-A [7] = biological target: T7, hVEGF-A; assay: cell-based or functional assay; remark: listed apart in the source
# NGF = NGF (human, UniProt P01138 122-241, limits assumed); assay: competition ELISA: NGF coated, constant NGFR receptor, peptide titrated
# NGF, sequence (P01138 122-241 limits assumed): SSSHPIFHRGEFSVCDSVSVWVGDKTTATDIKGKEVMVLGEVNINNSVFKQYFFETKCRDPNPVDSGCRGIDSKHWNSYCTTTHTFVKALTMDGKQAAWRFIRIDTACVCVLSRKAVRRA
# VEGF-D = biological target: T4, VEGF-D; assay: competition ELISA: VEGF-D coated, constant Flt-4 receptor, peptide titrated
# IGF-1 = IGF-1 (human, UniProt P05019 49-118); assay: competition ELISA: IGF coated, constant IGFR receptor, peptide titrated
# hVEGF-A [8] = biological target: T7, hVEGF-A; assay: cell-based or functional assay; remark: listed apart in the source
# VEGF-C = biological target: T5, VEGF-C; assay: competition ELISA: VEGF-C coated, constant Flt-4 receptor, peptide titrated
# human VEGF-A 165 [9] = biological target: T6, human VEGF-A 165; assay: competition ELISA: VEGF-A 165 coated, constant KDR receptor, peptide titrated; blocked ligand: KDR; remark: listed apart in the source
# Method: as §1
# hVEGF-A (8-109) [10] = biological target: T3, hVEGF-A (8-109); assay: competition ELISA: VEGF-A (8-109) coated, constant KDR receptor, peptide titrated; blocked ligand: KDR; remark: listed apart in the source
# Method: as §1
# EGF = EGF (human, UniProt P01133 971-1023); assay: competition ELISA: EGF coated, constant EGFR receptor, peptide titrated
# EGF, sequence (P01133 971-1023 limits assumed): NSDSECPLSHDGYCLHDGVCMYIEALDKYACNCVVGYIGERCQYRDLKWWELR
binder,measurement,setting,value
B1,binding result,PIGF-2,no binding (tested: 5 µM)
same,binding result,PDGF-ββ,no binding (tested: 5 µM)
same,binding result,hVEGF-A F17A/M81A,binds
same,IC50 (read off the curve),human VEGF-A 165 [1],~30 nM
same,IC50 (read off the curve),hVEGF-A [2],~60 nM
same,IC50 (read off the curve),hVEGF-A (8-109) [3],~70 nM
same,IC50 (read off the curve),hVEGF-A (8-109) [4],~20 nM
same,ELISA,hVEGF-A (8-109) [5],2.3
same,S/N vs BSA,hVEGF-A (8-109) [5],29.5
same,IC50,hVEGF-A [6],0.2 nM
same,Cellular IC50,hVEGF-A [7],1.35 nM
same,FOLD [..] [..] TO VARIANT 9.54.90,hVEGF-A [7],1 fold
same,binding result,NGF,no binding (tested: 5 µM)
same,binding result,VEGF-D,no binding (tested: 5 µM)
same,binding result,IGF-1,no binding (tested: 5 µM)
same,Cellular IC50,hVEGF-A [8],1.35 nM
same,binding result,VEGF-C,no binding (tested: 5 µM)
same,IC50 (read off the curve),human VEGF-A 165 [9],~30 nM
same,IC50 (read off the curve),hVEGF-A (8-109) [10],~20 nM
same,binding result,EGF,no binding (tested: 5 µM)
